Molecular target: GST-RhHB1 (Rosa hybrida, UniProt A0A096YDU1 1-243)
Assay: EMSA; 25 pM probe (so in the source), 3 ug protein; signal weakened by 10x and 100x unlabeled probe; Pierce EMSA kit, per manufacturer's instructions; buffer, salt, pH and temperature not given
Conditions: protein: recombinant; tags: GST (N-terminal, pGEX-2T); chain copies: 2; label: biotin (5' of S3); blunt

Sequence of GST-RhHB1 (A0A096YDU1 entry or part of it): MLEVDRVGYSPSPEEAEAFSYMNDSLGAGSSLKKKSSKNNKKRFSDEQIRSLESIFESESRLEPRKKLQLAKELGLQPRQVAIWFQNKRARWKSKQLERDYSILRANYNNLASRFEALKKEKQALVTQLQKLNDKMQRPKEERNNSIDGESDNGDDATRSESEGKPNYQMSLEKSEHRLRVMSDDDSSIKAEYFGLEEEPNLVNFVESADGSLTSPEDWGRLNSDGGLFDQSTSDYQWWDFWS

B1: RhLOX4 promoter probe (-1270 to -1303) (dsDNA)
DNA 1: AAGAGAATATTTTGAAATAATATTAGGAGTCTCT
DNA 2: AGAGACTCCTAATATTATTTCAAAATATTCTCTT
B1: binds.
